Each block holds one molecule with its values, some of them ahead of it.
Legend:
lipoprotein lipase (LPL) [1] = target: T1, lipoprotein lipase (LPL) (Bos taurus, UniProt P11151); experiment: ITC measurement of LPL activity in human plasma with added regulators or inhibitors; type: biochemical, bovine; conditions: for effect on activity of LPL in plasma: LPL 0.6 nM
T1 construct: Bovine LPL was purified from milk; from tissue; host or cells: bovine milk
T1 sequence (P11151 29-478): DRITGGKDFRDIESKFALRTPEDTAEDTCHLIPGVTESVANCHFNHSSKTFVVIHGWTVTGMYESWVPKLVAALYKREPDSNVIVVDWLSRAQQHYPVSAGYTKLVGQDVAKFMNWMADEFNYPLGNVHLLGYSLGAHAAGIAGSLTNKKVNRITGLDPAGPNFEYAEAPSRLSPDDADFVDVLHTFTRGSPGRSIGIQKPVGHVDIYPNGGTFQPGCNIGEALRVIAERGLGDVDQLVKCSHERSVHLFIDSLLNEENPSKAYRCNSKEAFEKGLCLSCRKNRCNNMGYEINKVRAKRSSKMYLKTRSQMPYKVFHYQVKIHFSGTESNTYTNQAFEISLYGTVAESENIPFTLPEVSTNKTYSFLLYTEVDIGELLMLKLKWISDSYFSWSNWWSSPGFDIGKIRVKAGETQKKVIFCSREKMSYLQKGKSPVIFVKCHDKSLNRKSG
Experimental: Preparing the reagents—Bovine LPL was purified from milk (Bengtsson-Olivecrona & Olivecrona 1991) and dialysed to buffer containing 10 mM TRIS, pH 8.5 (4° C.), 4 mM sodium deoxycholate. Stock solutions of 0.5 mg/ml LPL were stored at −80° C. The N-terminal coiled-coil domain of human angiopoietin-like protein 4 (ANGPTL4), residues 26-184, was expressed in E. coli and purified as described (Robal et al. 2012). Full-length human angiopoietin-like protein 3 (ANGPTL3) expressed in Sf 21 cells was obtained from R&D Systems (USA). Apolipoprotein C-III0 was from human blood plasma (Bengtsson-Olivecrona & Sletten 1990). Apolipoprotein C-II and apolipoprotein A-V were expressed in E. coli and purified as described (Shen et al. 2010; Beckstead et al. 2003). A synthetic peptide corresponding to the N-terminal domain of human GPIHBP1, residues 23-51, was bought from Caslo (Denmark). The sequence of the peptide was as follows: […]. Antibodies (goat IgG) to human hepatic lipase were raised in a goat against hepatic lipase isolated from human post-heparin plasma (Olivecrona & Olivecrona 2000). The IgG fraction was isolated using Protein-A columns and the final preparation contained 5 mg protein per milliliter in 20 mM Na-phosphate buffer and 0.15 M NaCl (pH 7.4).
Sample preparation—Before experiments the human plasma samples were diluted 1.2 times with TRIS buffer pH 7.4 or with the additions specified for each experiment. The final concentration of TRIS was 20 mM in all cases. Stock solutions of LPL were diluted in cold 10 mM TRIS, pH 8.5, containing 4 mM sodium deoxycholate. In this buffer, LPL is stable for a long period of time, even at low protein concentrations The final concentration of deoxycholate during incubations with plasma or lipoproteins was 10 to 100 times lower than the initial. […] In experiments with post-heparin plasma, antibodies to hepatic lipase (in PBS) or the same volume of PBS only were added (180 μl of IgG or PBS was mixed with 360 μl of post-heparin plasma) and the mixture was then incubated for 2 hours on ice prior to experiments (Olivecrona & Olivecrona 2000). All samples were degassed under vacuum for 15 minutes before the ITC experiments.
(§1) ITC measurements—Most of the experiments were performed on an Nano ITC model 5300 (TA Instruments, USA) at 25° C. A MicroCal Auto-iTC200 (GE Healthcare) instrument was used for experiments regarding relationship between total heat production and released fatty acids. In a typical experiment performed by Nano ITC, the lipase substrate (plasma, Intralipid 20% or VLDL) with or without added ligands was placed into the calorimetric cell (1035 μl) and the syringe (250 μl) was filled with LPL-containing solution (bovine LPL or post-heparin plasma) (see FIG. 1A). MilliQ water was loaded into the reference cell (1032 μl). The stirring speed in the sample cell was 400 rpm. The baseline was left to stabilize for at least 1 hour before injections of LPL or post-heparin plasma. In all experiments, the first injection was 2 μl and after that single or sequential injections of 10 to 25 μl were made. The interval between the injections was from 200 s to 500 s. In experiments performed by MicroCal Auto-iTC200, 400 μl of lipase substrate (plasma), 400 μl of equilibration buffer (20 mM TRIS, pH 7,4) and a sufficient volume of LPL (0.8 μM) were placed on the loading plate. The calorimetric cell (200 μl) was rinsed with equilibration buffer and loaded with 200 μl of substrate in an automated fashion. The syringe was loaded with 40 μl of LPL-containing solution. The stirring speed in the sample cell was 600 rpm and the baseline was stabilized automatically. The first injection of LPL was 0.2 μl and the second injection was 2 μl. The experiment time was 1 hour to allow full hydrolysis of plasma triglycerides.After each experiment the Nano ITC sample cell was washed with the following solutions, one after the other: MilliQ water, 2% SDS, 40 mM NaOH and finally 95% ethanol. […]

lipoprotein lipase (LPL) [2] = target: T1, lipoprotein lipase (LPL); experiment: ITC measurement of Intralipid hydrolysis by LPL, activation by apoC-II; type: biochemical, bovine; conditions: Intralipid substrate
Experimental: The substrate mixture composition was as follows: 1 mg triglyceride/ml Intralipid, 10 mg/ml BSA, 10 IU/ml heparin, 0.15 M NaCl, 10 mM TRIS pH 7.4. […] Final concentration of LPL was 1.2 nM in all experiments.
Heat rate points at 200 s were obtained from FIG. 5a. The data were fitted using the following equation (Quinn et al. 1983): […]
as §1, with “[…] Raw ITC data were analysed using” for “The experiment time was 1 hour to allow full hydrolysis of plasma triglycerides.After each experiment”, “NanoAnalyze (TA Instruments) Or MicroCal Origin (GE Healthcare).” for “Nano ITC sample cell was washed with the following solutions, one after the other: MilliQ water, 2% SDS, 40 mM NaOH and finally 95% ethanol.”

Molecule: CCCCCCCCCCC[C@@H](C[C@@H]1OC(=O)[C@H]1CCCCCC)OC(=O)[C@H](CC(C)C)NC=O [THL, tetrahydrolipstatin, reference compound]
immediate drop of the activity of LPL (lipoprotein lipase (LPL) [1]; 10 μM THL, human plasma, LPL 1 nM, unchanged afterwards): 80% | THL concentration at which inhibition of LPL was detectable (lipoprotein lipase (LPL) [1]; human plasma, LPL 1 nM): 90 nM

Molecule: QQEEEEEDEDHGPDDYDEEDEDEVEEEET [N-terminal peptide of GPIHBP1, synthetic peptide corresponding to the N-terminal domain of human GPIHBP1, residues 23-51, reference compound]
protection of LPL from inactivation by ANGPTL4 (lipoprotein lipase (LPL) [1]; 100 nM ANGPTL4, LPL 0.6 nM, TG 1 mM): could not protect LPL from inactivation

B2: ANGPTL3: Full-length human angiopoietin-like protein 3 expressed in Sf 21 cells, from R&D Systems (protein, UniProt Q9Y5C1 1-460, looked up)
chain: MFTIKLLLFIVPLVISSRIDQDNSSFDSLSPEPKSRFAMLDDVKILANGLLQLGHGLKDFVHKTKGQINDIFQKLNIFDQSFYDLSLQTSEIKEEEKELRRTTYKLQVKNEEVKNMSLELNSKLESLLEEKILLQQKVKYLEEQLTNLIQNQPETPEHPEVTSLKTFVEKQDNSIKDLLQTVEDQYKQLNQQHSQIKEIENQLRRTSIQEPTEISLSSKPRAPRTTPFLQLNEIRNVKHDGIPAECTTIYNRGEHTSGMYAIRPSNSQVFHVYCDVISGSPWTLIQHRIDGSQNFNETWENYKYGFGRLDGEFWLGLEKIYSIVKQSNYVLRIELEDWKDNKHYIEYSFYLGNHETNYTLHLVAITGNVPNAIPENKDLVFSTWDHKAKGHFNCPEGYSGGWWWHDECGENNLNGKYNKPRAKSKPERRRGLSWKSQNGRLYSIKSTKMLIHPTDSESFE
modifications: full-length
notes: Full-length human angiopoietin-like protein 3 expressed in Sf 21 cells, from R&D Systems
concentration at which effect on LPL in plasma was detectable (lipoprotein lipase (LPL) [1]; human plasma): detectable already at nanomolar concentrations

Continued, values first:

effect on activity of LPL in plasma (lipoprotein lipase (LPL) [1]; 10 nM apoA-V, TG 1 mM): did not change the activity of LPL | effect on activity of LPL in plasma (lipoprotein lipase (LPL) [1]; 100 nM apoA-V, TG 1 mM): some inhibition was observed
B1: apoA-V: apolipoprotein A-V expressed in E. coli (protein, UniProt Q6Q788 24-366, looked up)
Apolipoprotein A-V: RKGFWDYFSQTSGDKGRVEQIHQQKMAREPATLKDSLEQDLNNMNKFLEKLRPLSGSEAPRLPQDPVGMRRQLQEELEEVKARLQPYMAEAHELVGWNLEGLRQQLKPYTMDLMEQVALRVQELQEQLRVVGEDTKAQLLGGVDEAWALLQGLQSRVVHHTGRFKELFHPYAESLVSGIGRHVQELHRSVAPHAPASPARLSRCVQVLSRKLTLKAKALHARIQQNLDQLREELSRAFAGTGTEEGAGPDPQMLSEEVRQRLQAFRQDTYLQIAAFTRAIDQETEEVQQQLAPPPPGHSAFAPEFQQTDSGKVLSKLQARLDDLWEDITHSLHDQGHSHLGDP

estimated maximal activation factor of LPL (lipoprotein lipase (LPL) [2]; 1.2 nM LPL, apoC-II 0 to 1000 nM, heat rate at 200 s, model of Quinn et al. 1983): 4.2±1.2 | Kd (lipoprotein lipase (LPL) [2]; 1.2 nM LPL, heat rate at 200 s, model of Quinn et al. 1983, read-out: Kd value (affinity of apoC-II for LPL)): 22 ± 8 nM | effect on stability of LPL (lipoprotein lipase (LPL) [2]; LPL not stable without apoC-II or below 100 nM): stabilized LPL
B3: apoC-II: Apolipoprotein C-II expressed in E. coli; activator of LPL (protein, UniProt P02655 29-101, looked up)
Apolipoprotein C-II: DEMPSPTFLTQVKESLSSYWESAKTAAQNLYEKTYLPAVDEKLRDLYSKSTAAMSTYTGIFTDQVLSVLKGEE
